The text below walks through data of patent publication US20240041987A1, “NOVEL BIOACTIVE PEPTIDE COMBINATIONS AND USES THEREOF” (COLZYX AB, priority 2020, published 2024).

Read-outs that look alike come from different tables or passages of the source.

One data set concerns microorganisms. To be noted: cited from earlier work.
Another data set has as its system wound healing. The following applies: cited from earlier work.
The mark [1] stands for this setting: 25 ± 2° C./60% RH ± 5%, 1 month.
Setting [2] is: 25 ± 2° C./60% RH ± 5%, 3 months.

Consider “AAKPVATKPEVPRPQAAKPA (AAK20) [collagen VI derived polypeptide]”, for which the “Antimicrobial activity?” value in the data set with microorganisms was “Yes”.
Turning to “DVNVFAIGVEDADEGALKEIASEPLNMHMFNL (DVN32) [collagen VI derived polypeptide]”, the “Antimicrobial activity?” value with microorganisms was “No”. In the data set with wound healing, the “Wound healing activity?” value is listed as “No”.
In the case of “EQNFHKARRFVEQVARRLTL (EQN20) [collagen VI derived polypeptide]”, in the data set with microorganisms, the “Antimicrobial activity?” value was “Yes”.
For the molecule “FFLKDFSTKRQIIDAINKVVYKGGR (FFL25) [collagen VI derived polypeptide]”, the “Antimicrobial activity?” value in the data set on microorganisms is “Yes”. The “Wound healing activity?” value in the data set on wound healing was “have wound healing properties and Yes”.
As for “FTKRFIDNLRDRYYRCDRNL (FTK20) [collagen VI derived polypeptide]”, the “Antimicrobial activity?” value with microorganisms is “Yes”.
For “FYLKTYRSQAPVLDAIRRLRLRGGS (FYL25) [collagen VI derived polypeptide]”, the “Antimicrobial activity?” value in the data set on microorganisms is on record as “Yes”. For the same molecule, the “Wound healing activity?” value with wound healing was “have wound healing properties and Yes”.
For the molecule “GFAHIRDFVSRIVRRLNIGP (GFA20) [collagen VI derived polypeptide]”, the “Antimicrobial activity?” value in the data set on microorganisms is reported as “Yes”.
Take “GVRPDGFAHIRDFVSRIVRRLNIGPSKV (GVR28) [peptide derived from collagen VI alpha-3 chain]”: where the note is “25 ± 2° C./60% RH ± 5%, 0 D”, the Appearance result was “White powder”; the “Identity (RP-HPLC)” value is on record as “Retention Time Conforms”; the “Purity (RP-HPLC)” value worked out at 98.1%; the “Related Impurities (by RRT), Specified Impurity %: RRT = 0.80*, RRT = 0.81* Total” value is on record as 0.07%. For the setting “25 ± 2° C./60% RH ± 5%, 0 D”, the “Related Impurities (by RRT), Specified Impurity %: RRT = 0.96*” value amounted to 0.38%; the “Related Impurities (by RRT), Specified Impurity %: RRT = 1.04” value is reported as 0.56%; the “Related Impurities (by RRT), Specified Impurity %: RRT = 1.13*” value worked out at 0.22%; the “Unspecified Impurity % (Report ≥0.10%): RRT = 0.94” value is 0.15%. Also, under “25 ± 2° C./60% RH ± 5%, 0 D”, the “Unspecified Impurity % (Report ≥0.10%): RRT = 1.09” value amounted to 0.32%, the “Unspecified Impurity % ≤0.50%” value is “Conforms” and the “Water Content (KF)” value worked out at 4.2%. Moreover, under setting [1], the Appearance result is listed as “White powder”; the “Identity (RP-HPLC)” value is “Retention Time Conforms”; the “Purity (RP-HPLC)” value amounted to 97.7%; the “Related Impurities (by RRT), Specified Impurity %: RRT = 0.82*” value worked out at 0.07%. Besides, under setting [1], the “Related Impurities (by RRT), Specified Impurity %: RRT = 0.97” value is recorded as 0.40%; the “Related Impurities (by RRT), Specified Impurity %: RRT = 1.04” value is 0.57%; the “Related Impurities (by RRT), Specified Impurity %: RRT = 1.12” value was determined as 0.49%; the “Unspecified Impurity % (Report ≥0.10%): RRT = 0.95” value (“Unspecified Impurity % … RRT = 0.95” below) was 0.16%. Under setting [1], the “Unspecified Impurity % (Report ≥0.10%): RRT = 1.08” value (“Unspecified Impurity % … RRT = 1.08” for short) is 0.32%, the “Unspecified Impurity % ≤0.50%” value is recorded as “Conforms” and the “Water Content (KF)” value turned out to be 3.9%. Under setting [2], the Appearance result is recorded as “White powder”; the “Identity (RP-HPLC)” value is on record as “Retention Time Conforms”; the “Purity (RP-HPLC)” value was 97.3%; the “Related Impurities (by RRT), Specified Impurity %: RRT = 0.83*” value was determined as 0.12%. Under setting [2], the “Related Impurities (by RRT), Specified Impurity %: RRT = 0.97” value worked out at 0.41%; the “Related Impurities (by RRT), Specified Impurity %: RRT = 1.04” value was 0.56%; the “Related Impurities (by RRT), Specified Impurity %: RRT = 1.12” value is 0.77%; the “Unspecified Impurity % … RRT = 0.95” value is on record as 0.17%. Further, under setting [2], the “Unspecified Impurity % … RRT = 1.08” value is recorded as 0.32%, the “Unspecified Impurity % ≤0.50%” value is on record as “conforms” and the “Water Content (KF)” value is 3.9%. In addition, the “change in purity during the initial 3 months” value (stored at 25° C.) is “slight decrease in purity”. Also, where the note is “−20 ± 5° C., 0 D”, the Appearance entry is “White powder”; the “Identity (RP-HPLC)” value is recorded as “Retention Time Conforms”; the “Purity (RP-HPLC)” value worked out at 98.10%; the “Related Impurities (by RRT), Specified Impurity %: RRT = 0.80*, RRT = 0.81* Total” value was 0.07%. In addition, under “−20 ± 5° C., 0 D”, the “Related Impurities (by RRT), Specified Impurity %: RRT = 0.96*” value came to 0.38%; the “Related Impurities (by RRT), Specified Impurity %: RRT = 1.04” value amounted to 0.56%; the “Related Impurities (by RRT), Specified Impurity %: RRT = 1.13*” value is 0.22%; the “Unspecified Impurity % (Report ≥0.10%): RRT = 0.94” value came to 0.15%. For the same molecule, for the setting “−20 ± 5° C., 0 D”, the “Unspecified Impurity % (Report ≥0.10%): RRT = 1.09” value is 0.32%, the “Unspecified Impurity % ≤0.50%” value was “conforms” and the “Water Content (KF)” value is given as 4.2%. Besides, under “−20 ± 5° C., 3 months”, the Appearance entry is “White powder”; the “Identity (RP-HPLC)” value is recorded as “Retention Time Conforms”; the “Purity (RP-HPLC)” value is 98.10%; the “Related Impurities (by RRT), Specified Impurity %: RRT = 0.83*” value is listed as 0.04%. Besides, where the note is “−20 ± 5° C., 3 months”, the “Related Impurities (by RRT), Specified Impurity %: RRT = 0.97” value is 0.38%; the “Related Impurities (by RRT), Specified Impurity %: RRT = 1.04” value came out at 0.54%; the “Related Impurities (by RRT), Specified Impurity %: RRT = 1.12” value came to 0.20%; the “Unspecified Impurity % … RRT = 0.95” value came to 0.17%. Also, where the note is “−20 ± 5° C., 3 months”, the “Unspecified Impurity % … RRT = 1.08” value worked out at 0.31%, the “Unspecified Impurity % ≤0.50%” value was “conforms” and the “Water Content (KF)” value worked out at 1.8%. Further, the “Antimicrobial activity?” value with microorganisms is listed as “Yes”. The “Wound healing activity?” value with wound healing is “have wound healing properties and Yes”.
In the case of “KGFESKVDAILNRISQMHRV (KGF20) [collagen VI derived polypeptide]”, the “Antimicrobial activity?” value with microorganisms is “Yes”.
As to “KPEILNLVKRMKIKTGKALN (KPE20) [collagen VI derived polypeptide]”, the “Antimicrobial activity?” value in the data set with microorganisms is reported as “Yes”.
On to “LRLKPYGALVDKVKSFTKRF (LRL20) [collagen VI derived polypeptide]”, for which the “Antimicrobial activity?” value in the data set with microorganisms is on record as “Yes”.
Take “QAPVLDAIRRLRLRGGSPLN (QAP20) [collagen VI derived polypeptide]”: in the data set with microorganisms, the “Antimicrobial activity?” value is on record as “Yes”.
With “RDALKSSVDAVKYFGKGTYT (RDA20) [collagen VI derived polypeptide]”, the “Antimicrobial activity?” value in the data set with microorganisms is recorded as “Yes”.
Consider “RKVAVFFSNTPTRASPQLRE (RKV20) [collagen VI derived polypeptide]”, for which the “Antimicrobial activity?” value in the data set with microorganisms is “Yes”.
Turning to “TKRFAKRLAERFLTAGRTDP (TKR20) [collagen VI derived polypeptide]”, the “Antimicrobial activity?” value in the data set with microorganisms is “Yes”.
With “TSSPTSNPVTTTKPVTTTKPVTTTTKPVTTTTKPVT (TSS36) [collagen VI derived polypeptide]”, the “Antimicrobial activity?” value in the data set on microorganisms is on record as “Yes”.
Consider “TTKPVTTTKPVTTTTKPVTT (TTK20) [collagen VI derived polypeptide]”, for which, in the data set with microorganisms, the “Antimicrobial activity?” value is “Yes”.
For “VAAKPVATKMAVRPPVAVKP (VAA20) [collagen VI derived polypeptide]”, the “Antimicrobial activity?” value in the data set on microorganisms was “Yes”.
Take “VTTEIRFADSKRKSVLLDKIKNLQVALTSK (VTT30) [collagen VI derived polypeptide]”: the “Antimicrobial activity?” value in the data set with microorganisms is recorded as “Yes”. Further, the “Wound healing activity?” value in the data set on wound healing was “have wound healing properties and Yes”.
With “VVHAINAIVRSPRGGARRHA (VVH20) [collagen VI derived polypeptide]”, the “Antimicrobial activity?” value with microorganisms was “Yes”.
For the molecule “YDRLIKESRRQKTRVFAVVI (YDR20) [collagen VI derived polypeptide]”, the “Antimicrobial activity?” value in the data set with microorganisms was “Yes”.

B1: AAAKPAPAKPVAAKPVATKMATVRPPVAVKPATAAKPVAAKPAAVRPPAAAAAKPVATKPEVPRPQAAKPAATKPA (peptide)
chain: AAAKPAPAKPVAAKPVATKMATVRPPVAVKPATAAKPVAAKPAAVRPPAAAAAKPVATKPEVPRPQAAKPAATKPA
modifications: AAA76
notes: collagen VI derived polypeptide
Consider B1, for which the “Antimicrobial activity?” value in the data set with microorganisms is “Yes”.
